The source of these data is publication PMC3016346.

What all share (assay): two-hybrid; Matchmaker Gal4 system 3 in AH109; beta-galactosidase solution assay with ONPG on lysed cells from liquid culture; activity as percent of p53-TAg (100%); mean of at least three experiments
Experiment [1] has as its target SeMV MP NΔ49 deletion mutant, Gal4 DNA-binding domain fusion (pGBKT7 NΔ49) (Sesbania mosaic virus).
Experiment [2] concerns the target Sesbania mosaic virus movement protein, Gal4 DNA-binding domain fusion (pGBK T7 MP) (Sesbania mosaic virus).
Experiment [3] concerns the target SeMV MP CΔ38 deletion mutant, Gal4 DNA-binding domain fusion (pGBK T7) (Sesbania mosaic virus).

Take “Sesbania mosaic virus 10-kDa protein (P10), Gal4 activation domain fusion (pGAD T7 P10) (natural protein)”: the beta-galactosidase activity, percent of p53-TAg in experiment [1] was found to be 14%; in experiment [2], 97.1%.
In turn, “Sesbania mosaic virus coat protein (CP), Gal4 activation domain fusion (pGAD T7 CP) (natural protein)” registered a beta-galactosidase activity, percent of p53-TAg in experiment [2] of 70%.
Consider “Sesbania mosaic virus viral protein genome linked (VPg), Gal4 activation domain fusion (pGAD T7 VPg) (natural protein)”, for which the beta-galactosidase activity, percent of p53-TAg in experiment [2] amounted to 95.5%; in experiment [3] it was 83.1%.
